This note sets out measurements from JP2019059762A (dated 2019).

Where “and” joins values, the source holds several entries; their conditions need not be identical. Identical values can stand only once.

What all share (test): cell-based or functional assay
In one assay the target is cynomolgus monkey IL-13 (cynomolgus monkey, UniProt Q0PW92 21-132).
The next assay concerns the target recombinant human IL-13 (human, UniProt P35225 35-146, limits assumed).
A further assay addresses T1, cynomolgus monkey IL-4 (cynomolgus monkey, UniProt P79339 25-153).
T1 sequence (looked up): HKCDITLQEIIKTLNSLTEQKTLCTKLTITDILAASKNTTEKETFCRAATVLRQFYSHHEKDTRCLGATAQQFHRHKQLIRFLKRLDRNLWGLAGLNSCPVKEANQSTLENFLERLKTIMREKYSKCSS

recombinant human IL-13, sequence (P35225 35-146 limits assumed): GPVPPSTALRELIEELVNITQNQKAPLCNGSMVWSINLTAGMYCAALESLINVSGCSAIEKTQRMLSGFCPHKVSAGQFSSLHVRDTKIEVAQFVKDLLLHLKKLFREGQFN
cynomolgus monkey IL-13, sequence (Q0PW92 entry or part of it): as the sequence (P35225 35-146 limits assumed) above, with G1S, R10K, M42V, S67N, H83R, L100V counted along it

B1: huTBTI3_2_1 (bispecific antibody)
chain 1: EVQLKESGPGLVAPGGSLSITCTVSGFSLTDSSINWVRQPPGKGLEWLGMIWGDGRIDYADALKSRLSISKDSSKSQVFLEMTSLRTDDTATYYCARDGYFPYAMDFWGQGTSVTVSSGGGGSGGGGSQVQLQQSGPELVKPGASVKISCKASGYSFTSYWIHWIKQRPGQGLEWIGMIDPSDGETRLNQRFQGRATLTVDESTSTAYMQLRSPTSEDSAVYYCTRLKEYGNYDSFYFDVWGAGTLVTVSSA
chain 2: DIVLTQSPASLAVSLGQRATISCRASESVDSYGQSYMHWYQQKAGQPPKLLIYLASNLESGVPARFSGSGSRTDFTLTIDPVQAEDAATYYCQQNAEDSRTFGGGTKLEIKGGGGSGGGGSDIQMTQSPASLSVSVGDTITLTCHASQNIDVWLSWFQQKPGNIPKLLIYKASNLHTGVPSRFSGSGSGTGFTLTISSLQPEDIATYYCQQAHSYPFTFGGGTKLEIKR
For the molecule B1, the “geometric mean IC50, inhibition of cIL-13-induced TF-1 cell proliferation” value with cynomolgus monkey IL-13 was determined as 0.45 nM. Moreover, in the assay with recombinant human IL-13, the “IC50, inhibition of IL-4- and IL-13-induced LOX gene expression in IPF lung fibroblasts” value is 3 nM and 6 nM; the “IC50, inhibition of IL-13-induced Stat6 phosphorylation in human whole blood monocytes, donor 002” value turned out to be 1.32 nM; the “IC50, inhibition of IL-13-induced Stat6 phosphorylation in human whole blood monocytes, donor 229” value amounted to 3.68 nM; the “IC50, inhibition of IL-13-induced Stat6 phosphorylation in human whole blood monocytes, donor 245” value was 2.65 nM. Further, in the assay with recombinant human IL-13, the “IC50, suppression of IL-6 release from IPF lung fibroblasts (LL97A) stimulated with rhIL-13 + rhIL-4 together” value worked out at 7.8 nM; the “IC50, suppression of eotaxin release from IPF lung fibroblasts (LL97A) stimulated with rhIL-13 + rhIL-4 together” value turned out to be 3.8 nM; the “geometric mean IC50, inhibition of hIL-13-induced TF-1 cell proliferation” value came out at 3.02 nM; the “geometric mean IC50 of three experiments, inhibition of IL-13-induced Stat6 phosphorylation” value was found to be 2.34 nM. In the assay with cynomolgus monkey IL-4, the “geometric mean IC50, inhibition of cIL-4-induced TF-1 cell proliferation” value turned out to be 0.53 nM.
